The target of test [1] is T1, isolated rNav1.2a VSD IV paddle peptide with R1629A/L1630A substitutions and C-terminal K-linked biotin (rat). Description: site 2 of heterogeneous ligand model (kd2).
Test [2] deals with T1, isolated rNav1.2a VSD IV paddle peptide …. Put plainly: SPR (Biacore T200), heterogeneous ligand model, site 1. (Surface plasmon resonance follows binding to a sensor surface in real time, without labels.)
Test [3] shares this target. Put plainly: site 1 of heterogeneous ligand model (kd1).
Test [4] has the same target. Put plainly: SPR (Biacore T200), heterogeneous ligand model, site 1, n=3, mean±SD; site 1, high affinity KD1, n=3.
For test [5] the target is unchanged. Put plainly: site 2 of heterogeneous ligand model (ka2).
The target of test [6] is T2, rNav1.2a/Kv2.1 VSD IV paddle chimera (WT paddle) (rat), P15387.
T2 chain: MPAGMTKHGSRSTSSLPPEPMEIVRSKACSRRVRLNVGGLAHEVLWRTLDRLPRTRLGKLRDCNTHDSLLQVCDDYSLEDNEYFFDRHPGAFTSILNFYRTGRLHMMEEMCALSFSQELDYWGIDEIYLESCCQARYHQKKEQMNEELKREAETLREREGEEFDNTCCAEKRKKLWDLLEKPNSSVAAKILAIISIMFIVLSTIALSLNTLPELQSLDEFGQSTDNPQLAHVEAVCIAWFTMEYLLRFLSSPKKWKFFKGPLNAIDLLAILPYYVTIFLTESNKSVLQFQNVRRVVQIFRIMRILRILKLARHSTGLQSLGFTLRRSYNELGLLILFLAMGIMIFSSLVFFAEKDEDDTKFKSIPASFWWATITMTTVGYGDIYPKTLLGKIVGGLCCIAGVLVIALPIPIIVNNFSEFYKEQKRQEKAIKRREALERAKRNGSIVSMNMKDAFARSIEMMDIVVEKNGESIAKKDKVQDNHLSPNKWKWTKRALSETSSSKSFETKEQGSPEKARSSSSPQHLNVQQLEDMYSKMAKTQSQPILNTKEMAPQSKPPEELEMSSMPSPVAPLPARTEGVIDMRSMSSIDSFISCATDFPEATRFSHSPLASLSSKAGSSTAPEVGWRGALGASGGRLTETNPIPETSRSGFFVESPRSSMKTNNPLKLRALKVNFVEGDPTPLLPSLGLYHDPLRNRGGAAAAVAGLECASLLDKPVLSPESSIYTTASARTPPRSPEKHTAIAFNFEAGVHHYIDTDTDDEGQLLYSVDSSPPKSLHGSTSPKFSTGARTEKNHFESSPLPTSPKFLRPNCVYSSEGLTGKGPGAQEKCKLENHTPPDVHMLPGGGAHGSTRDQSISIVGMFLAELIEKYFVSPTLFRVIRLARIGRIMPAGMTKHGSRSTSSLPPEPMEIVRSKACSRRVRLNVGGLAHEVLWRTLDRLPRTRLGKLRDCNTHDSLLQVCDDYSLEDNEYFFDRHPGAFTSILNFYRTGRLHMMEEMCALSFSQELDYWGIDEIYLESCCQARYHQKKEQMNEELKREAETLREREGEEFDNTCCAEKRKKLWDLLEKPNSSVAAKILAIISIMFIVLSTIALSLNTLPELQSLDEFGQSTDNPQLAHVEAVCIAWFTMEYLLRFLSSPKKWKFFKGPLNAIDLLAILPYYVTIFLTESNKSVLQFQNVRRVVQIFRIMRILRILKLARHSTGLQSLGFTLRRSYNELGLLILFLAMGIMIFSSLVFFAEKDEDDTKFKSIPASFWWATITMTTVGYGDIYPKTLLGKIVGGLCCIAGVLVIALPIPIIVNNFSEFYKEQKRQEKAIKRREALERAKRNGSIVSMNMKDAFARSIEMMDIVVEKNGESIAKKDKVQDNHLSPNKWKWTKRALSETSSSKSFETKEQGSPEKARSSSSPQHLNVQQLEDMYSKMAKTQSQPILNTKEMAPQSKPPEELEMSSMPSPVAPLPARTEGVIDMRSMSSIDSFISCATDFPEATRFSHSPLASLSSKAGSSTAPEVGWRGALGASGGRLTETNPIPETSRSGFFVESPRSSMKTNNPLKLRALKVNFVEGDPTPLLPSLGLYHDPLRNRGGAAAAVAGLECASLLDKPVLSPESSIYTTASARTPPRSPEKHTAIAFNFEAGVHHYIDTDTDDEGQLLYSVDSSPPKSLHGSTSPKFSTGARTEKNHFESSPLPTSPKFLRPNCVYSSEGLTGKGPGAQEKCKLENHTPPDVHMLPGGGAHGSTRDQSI
Description: cell-based or functional assay.

For test [7], the target named is rNav1.2a/Kv2.1 VSD IV chimera containing the R1629A/L1630A substitutions (rat), P15387. Description: cell-based or functional assay.
Test [8] deals with T1, isolated rNav1.2a VSD IV paddle peptide …. Description: SPR (Biacore T200), heterogeneous ligand model, site 2.
Test [9] has the same target. Put plainly: SPR (Biacore T200), heterogeneous ligand model, site 2, n=3, mean±SD; site 2, lower affinity KD2, n=3.
Test [10] shares this target. Put plainly: site 1 of heterogeneous ligand model (ka1).

B1: AaHII from Androctonus australis hector, P01484 20-83 (peptide)
chain: VKDGYIVDDVNCTYFCGRNAYCNEECTKLKGESGYCQWASPYGNACYCYKLPDHVRTKGPGRCH
modifications: not checked
A word on the koff: it is a measure of how fast the partners let go of each other. Lower therefore signals slow dissociation. Usually Kd stands for the free concentration of one partner at which half of the binding sites on the other are occupied at equilibrium, for simple one-to-one binding. High values mean a looser complex, low ones a tighter complex. In general, kon refers to the rate constant with which the complex forms. High values mean fast association, low ones slow association. Consider B1, for which the off-rate constant (koff) worked out at 0.0281 s⁻¹ in test [1] and 0.000979 s⁻¹ in test [3]. The RUmax1 in test [2] was 135 RU. Besides, the Kd in test [4] is 479 nM; in [9], 747 nM. The figures for the on-rate constant (kon) in [5] and in test [10] were 38200 M⁻¹ s⁻¹ and 2330 M⁻¹ s⁻¹, respectively. In addition, the figures for the apparent KD (from K+ current inhibition, two-electrode voltage clamp, Xenopus oocytes) in test [6] and in [7] were 1010 nM and 193 nM, respectively. The RUmax2 in [8] was 23 RU.
